The numbers were not newly measured in publication PMC3726369, which cites them from elsewhere.

Where two headings read alike, the source gives them in different places.

For data set [1], the target named is LH receptor (Homo sapiens) (UniProt P22888).
For data set [2], the target named is LH receptor (Rattus norvegicus) (UniProt P16235).
Data set [3] addresses LH receptor (Homo sapiens) (UniProt P22888). The source holds these as a separate data set.

Chain of UniProt P22888 (P22888 27-699): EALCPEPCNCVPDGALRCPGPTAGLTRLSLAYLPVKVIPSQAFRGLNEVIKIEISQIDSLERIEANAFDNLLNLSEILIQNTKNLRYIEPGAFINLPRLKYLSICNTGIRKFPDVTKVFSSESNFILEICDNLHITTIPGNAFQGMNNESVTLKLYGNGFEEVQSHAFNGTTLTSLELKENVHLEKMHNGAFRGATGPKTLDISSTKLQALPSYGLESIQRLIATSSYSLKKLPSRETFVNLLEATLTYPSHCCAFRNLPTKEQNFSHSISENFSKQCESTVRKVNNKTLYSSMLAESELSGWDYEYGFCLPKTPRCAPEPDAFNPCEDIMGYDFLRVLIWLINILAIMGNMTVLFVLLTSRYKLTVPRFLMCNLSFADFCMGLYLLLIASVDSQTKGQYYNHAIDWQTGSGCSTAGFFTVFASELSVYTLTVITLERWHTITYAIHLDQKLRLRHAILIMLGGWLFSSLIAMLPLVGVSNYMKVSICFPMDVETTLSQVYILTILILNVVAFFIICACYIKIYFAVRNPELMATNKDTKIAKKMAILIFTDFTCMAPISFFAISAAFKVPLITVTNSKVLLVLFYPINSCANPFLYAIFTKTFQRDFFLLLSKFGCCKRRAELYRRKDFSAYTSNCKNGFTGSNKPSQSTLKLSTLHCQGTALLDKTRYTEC
Chain of UniProt P16235 (P16235 27-700): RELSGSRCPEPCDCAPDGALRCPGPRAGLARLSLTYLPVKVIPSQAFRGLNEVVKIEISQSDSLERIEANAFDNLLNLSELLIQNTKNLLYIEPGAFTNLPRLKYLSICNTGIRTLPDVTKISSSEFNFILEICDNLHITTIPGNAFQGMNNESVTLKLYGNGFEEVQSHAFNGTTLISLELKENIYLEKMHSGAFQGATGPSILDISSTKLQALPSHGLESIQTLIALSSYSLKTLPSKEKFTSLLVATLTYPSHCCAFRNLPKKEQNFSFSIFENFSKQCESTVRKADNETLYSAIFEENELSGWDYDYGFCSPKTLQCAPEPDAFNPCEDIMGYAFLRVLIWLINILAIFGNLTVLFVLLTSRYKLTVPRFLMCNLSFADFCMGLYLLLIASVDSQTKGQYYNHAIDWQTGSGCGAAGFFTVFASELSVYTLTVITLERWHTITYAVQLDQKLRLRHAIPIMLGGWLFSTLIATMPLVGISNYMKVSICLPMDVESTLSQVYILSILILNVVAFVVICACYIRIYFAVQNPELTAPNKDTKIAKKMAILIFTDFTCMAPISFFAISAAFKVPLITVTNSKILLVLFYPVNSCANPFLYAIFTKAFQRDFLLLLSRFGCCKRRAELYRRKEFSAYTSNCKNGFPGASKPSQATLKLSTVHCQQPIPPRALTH

As to LH (from UniProt P01215), the dissociation constant (Kd) was 9 nM in data set [1] and 0.09 nM in data set [2].

Turning to hCG (from UniProt P01215), in data set [3], the Kd was 4 nM.
